Assay results published in patent publication US20200317768A1 (published 2020).
Where a chain is given by its changes, count along the chain named. In names and notes the source's numbering stands.

Columns and labels:
[1] = molecular target: T1, human FcγRIIaH extracellular domain, C-terminal His-tag (human, UniProt P12318 34-217); assay: SPR; KD of SG1 divided by KD of variant;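 note: relative to parent M103205H795-SG1 carrying the SG1 human heavy chain constant region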
T1 construct: also called human FcγRIIa (type H); FcgRIIaH; not shown: His-tag added to the C-terminus
T1 sequence: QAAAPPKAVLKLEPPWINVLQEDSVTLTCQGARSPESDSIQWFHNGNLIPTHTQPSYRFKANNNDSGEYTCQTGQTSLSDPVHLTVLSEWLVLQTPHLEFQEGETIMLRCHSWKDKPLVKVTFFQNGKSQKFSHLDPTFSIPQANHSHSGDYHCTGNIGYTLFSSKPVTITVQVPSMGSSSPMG
Procedure: (§1) The kinetic analysis of interactions between these antibodies and FcγR was carried out using BIACORE® T200 or BIACORE® 4000 (GE Healthcare). HBS-EP+ (GE Healthcare) was used as the running buffer, and the measurement temperature was set to 25° C. A chip produced by immobilizing Protein A. Protein A/G or mouse anti-human IgG kappa light chain (BD Biosciences) onto a Series S Sensor Chip CM4 or CM5 (GE Healthcare) by the amine-coupling method was used. […] After the measurement, the antibody captured on the chip was washed off by allowing reaction with 10 mM glycine-HCl, pH1.5 and 25 mM NaOH so that the chip was regenerated and used repeatedly. The sensorgrams obtained as measurement results were analyzed by the 1:1 Langmuir binding model using the BIACORE® Evaluation Software to calculate the binding rate constant ka (L/mol/s) and dissociation rate constant kd (l/s), and the dissociation constant KD (mol/L) was calculated from these values. […] Regarding such interactions, KD values were calculated using the following 1:1 binding model described in BIACORE® T100 Software Handbook BR1006-48 Edition AE.

[2] = molecular target: T2, human FcγRIIaR extracellular domain, C-terminal His-tag (human, UniProt P12318 34-217); assay: SPR (BIACORE) 25C, antibody captured, FcgR as analyte
T2 construct: also called human FcγRIIa (type R); FcgRIIaR
T2 chain: T1 sequence with H134R
Procedure: as §1

[3] = molecular target: T3, cynomolgus monkey FcγRIIa1 extracellular domain, C-terminal His-tag (cynomolgus monkey); assay: as above
T3 construct: also called cyno FcγRIIa1; FcgRIIa1
T3 chain: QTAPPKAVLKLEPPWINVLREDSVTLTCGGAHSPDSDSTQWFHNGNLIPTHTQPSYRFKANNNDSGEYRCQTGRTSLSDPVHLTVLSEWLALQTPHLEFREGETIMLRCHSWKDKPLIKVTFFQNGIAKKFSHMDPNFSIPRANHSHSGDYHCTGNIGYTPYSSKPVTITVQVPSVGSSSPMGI
Procedure: as §1

[4] = molecular target: T4, human FcγRIIb extracellular domain, C-terminal His-tag (human, UniProt P31994 43-217); assay: as above
T4 construct: also called FcgRIIb (human)
T4 sequence: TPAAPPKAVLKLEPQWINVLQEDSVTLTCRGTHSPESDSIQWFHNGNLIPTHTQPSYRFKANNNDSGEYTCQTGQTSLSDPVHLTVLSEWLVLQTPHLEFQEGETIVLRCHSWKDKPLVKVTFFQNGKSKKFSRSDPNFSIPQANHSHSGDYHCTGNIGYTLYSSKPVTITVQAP
Procedure: as §1

[5] = molecular target: T5, cynomolgus monkey FcγRIIa2 extracellular domain, C-terminal His-tag (cynomolgus monkey); assay: as above
T5 construct: also called cyno FcγRIIa2; FcgRIIa2
T5 chain: T3 chain with P95T, T121A, I127K, A128S, K130N, D135N, R142Q
Procedure: as §1

[6] = molecular target: T6, cynomolgus monkey FcγRIIa3 extracellular domain, C-terminal His-tag (cynomolgus monkey); assay: as above
T6 construct: also called cyno FcγRIIa3; FcgRIIa3
T6 chain: T3 chain with P95T, T121A, A128S, H133P, D135N
Procedure: as §1

[7] = molecular target: T7, cynomolgus monkey FcγRIIb extracellular domain, C-terminal His-tag (cynomolgus monkey); assay: as above
T7 construct: also called cyno FcγRIIb; cynoFcγRIIb
T7 chain: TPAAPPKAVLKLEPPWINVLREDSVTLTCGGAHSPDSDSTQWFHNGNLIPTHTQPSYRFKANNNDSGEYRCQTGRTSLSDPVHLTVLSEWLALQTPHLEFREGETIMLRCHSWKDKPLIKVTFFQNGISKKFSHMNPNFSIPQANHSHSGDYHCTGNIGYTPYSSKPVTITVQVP
Procedure: as §1

[8] = molecular target: T3, cynomolgus monkey FcγRIIa1 …; assay: SPR; KD of SG1 / KD of variant;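 note: relative to parent M103205H795-SG1 carrying the SG1 human heavy chain constant region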
Procedure: as §1

[9] = molecular target: T4, human FcγRIIb extracellular domain, …; assay: SPR; KD of SG1 / KD of variant;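 note: relative to parent M103205H795-SG1 carrying the SG1 human heavy chain constant region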
Procedure: as §1

[10] = molecular target: T5, cynomolgus monkey FcγRIIa2 …; assay: SPR; KD of SG1 / KD of variant;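 note: relative to parent M103205H795-SG1 carrying the SG1 human heavy chain constant region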
Procedure: as §1

[11] = molecular target: T6, cynomolgus monkey FcγRIIa3 …; assay: SPR; KD of SG1 / KD of variant
Procedure: as §1

[12] = molecular target: T8, human FcγRIIaH extracellular domain, C-terminal His-tag (human, UniProt P12318 34-217); assay: SPR; KD of SG1 / KD of variant
T8 construct: also called human FcγRIIa (type H); FcgRIIaH
T8 sequence: T1 sequence
Procedure: as §1

B1: MS1032LO06-SG1 (M103205H795-SG1/M103202L889-SK1) (antibody, human IgG1, kappa)
heavy: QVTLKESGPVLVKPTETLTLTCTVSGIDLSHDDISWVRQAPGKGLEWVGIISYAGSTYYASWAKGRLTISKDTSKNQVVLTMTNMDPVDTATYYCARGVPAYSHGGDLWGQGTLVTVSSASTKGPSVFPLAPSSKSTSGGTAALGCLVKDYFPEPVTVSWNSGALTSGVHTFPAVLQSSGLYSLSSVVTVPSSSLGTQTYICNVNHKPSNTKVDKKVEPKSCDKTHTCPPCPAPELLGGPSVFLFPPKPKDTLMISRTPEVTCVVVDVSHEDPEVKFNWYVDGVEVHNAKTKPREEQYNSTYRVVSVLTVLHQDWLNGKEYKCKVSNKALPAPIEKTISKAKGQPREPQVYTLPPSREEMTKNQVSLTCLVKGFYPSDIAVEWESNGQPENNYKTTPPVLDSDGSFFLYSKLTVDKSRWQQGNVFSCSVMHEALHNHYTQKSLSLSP
light: DIVMTQSPATLSLSPGERATLSCTSSQSVYHANWLSWFQQKPGQPPKLLIYWASTLAYGVPSRFSGSGSGTDFTLTISSLQPEDAATYYCAGGYGGGRYAFGQGTKVEIKRTVAAPSVFIFPPSDEQLKSGTASVVCLLNNFYPREAKVQWKVDNALQSGNSQESVTEQDSKDSTYSLSSTLTLSKADYEKHKVYACEVTHQGLSSPVTKSFNRGEC
notes: Anti-latent myostatin antibody
- KD fold (SG1 = 1) [1]: 1 fold

B2: MS_M103205H795-SG1/M103202L889-SK1 (antibody, human IgG1, kappa)
heavy: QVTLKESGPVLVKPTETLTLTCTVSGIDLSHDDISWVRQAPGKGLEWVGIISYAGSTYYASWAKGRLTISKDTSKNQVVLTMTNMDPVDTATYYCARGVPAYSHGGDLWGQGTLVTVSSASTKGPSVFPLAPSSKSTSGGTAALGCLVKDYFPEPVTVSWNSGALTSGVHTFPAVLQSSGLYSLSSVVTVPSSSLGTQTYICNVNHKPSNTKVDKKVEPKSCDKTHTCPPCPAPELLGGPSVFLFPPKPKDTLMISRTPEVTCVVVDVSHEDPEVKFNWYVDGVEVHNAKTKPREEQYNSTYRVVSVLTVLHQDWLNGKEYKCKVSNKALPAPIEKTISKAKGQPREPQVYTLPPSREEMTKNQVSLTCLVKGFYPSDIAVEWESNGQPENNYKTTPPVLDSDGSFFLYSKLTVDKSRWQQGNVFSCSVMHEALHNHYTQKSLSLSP
light: B1 light
notes: also called MS1032LO06-SG1
- Kd [2]: 1.4 µM
- Kd [3]: 4.2 µM
- Kd [4]: 4.7 µM
- Kd [5]: 5.2 µM
- Kd [6]: 15 µM
- Kd [7]: 1.7 µM
- KD fold (SG1 = 1) [8]: 1 fold
- KD fold (SG1 = 1) [9]: 1 fold
- KD fold (SG1 = 1) [10]: 1 fold
- KD fold (SG1 = 1) [11]: 1 fold
- KD fold (SG1 = 1) [12]: 1 fold

B3: M103205H795-MY009/M103202L889-SK1 (antibody, human IgG1, kappa)
heavy: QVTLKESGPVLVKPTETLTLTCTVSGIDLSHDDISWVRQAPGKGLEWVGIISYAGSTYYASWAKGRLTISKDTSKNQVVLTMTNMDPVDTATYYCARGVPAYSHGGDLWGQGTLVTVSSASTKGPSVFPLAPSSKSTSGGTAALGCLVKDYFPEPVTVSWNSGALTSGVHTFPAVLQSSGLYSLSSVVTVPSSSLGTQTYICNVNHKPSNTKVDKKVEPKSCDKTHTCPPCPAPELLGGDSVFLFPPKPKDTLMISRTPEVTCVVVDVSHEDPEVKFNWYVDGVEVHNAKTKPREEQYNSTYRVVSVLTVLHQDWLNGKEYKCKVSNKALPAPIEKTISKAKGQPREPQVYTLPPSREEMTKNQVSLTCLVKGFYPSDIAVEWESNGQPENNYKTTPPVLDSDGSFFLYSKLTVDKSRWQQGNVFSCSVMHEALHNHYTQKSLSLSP
light: B1 light
notes: CH MY009 = SG1 with P238D (EU numbering); also called MS1032LO06-MY009
- Kd [2]: 20 µM
- Kd [3]: 25 µM
- Kd [4]: 1.4 µM
- Kd [5]: 26 µM
- Kd [6]: 31 µM
- Kd [7]: 4.9 µM
- KD fold (SG1 = 1) [8]: 0.2 fold
- KD fold (SG1 = 1) [9]: 3.3 fold
- KD fold (SG1 = 1) [10]: 0.2 fold
- KD fold (SG1 = 1) [11]: 0.5 fold
- KD fold (SG1 = 1) [12]: 0.01 fold

B4: MS1032LO06-PK57 (M103205H795-PK57/M103202L889-SK1) (antibody, human IgG1, kappa)
heavy: QVTLKESGPVLVKPTETLTLTCTVSGIDLSHDDISWVRQAPGKGLEWVGIISYAGSTYYASWAKGRLTISKDTSKNQVVLTMTNMDPVDTATYYCARGVPAYSHGGDLWGQGTLVTVSSASTKGPSVFPLAPSSKSTSGGTAALGCLVKDYFPEPVTVSWNSGALTSGVHTFPAVLQSSGLYSLSSVVTVPSSSLGTQTYICNVNHKPSNTKVDKKVEPKSCDKTHTCPPCPAPELLNGPSVFLFPPKPKDTLMISRTPEVTCVVVDVSDEDPEVKFNWYVDGVEVHNAKTKPREEQYNSTYRVVSVLTVLHRDWLNGKEYKCKVSNKALPKPIEKTISKAKGQPREPQVYTLPPSREEMTKNQVSLTCLVKGFYPSDIAVEWESRGQPENNYKTTPPVLDSDGSFFLYSKLTVRKSRWQQGNVFSCSVMHEALHNHYTQKSLSLSP
light: B1 light
notes: CH PK57 = SG1 with G236N/H268D/Q311R/A330K/N384R/D413R (EU numbering); also called MS103205H795-PK57
- KD fold (SG1 = 1) [1]: 0.7 fold

B5: MS1032LO06-MY352 (M103205H795-MY352/M103202L889-SK1) (antibody, human IgG1, kappa, name in EU numbering)
heavy: B4 heavy with R386N
light: B1 light
notes: Printed substitutions: G236N/H268D/Q311R/A330K/D413R (EU numbering); also called MS103205H795-MY352
- KD fold (SG1 = 1) [1]: 0.7 fold

B6: MS1032LO06-PK56 (M103205H795-PK56/M103202L889-SK1) (antibody, human IgG1, kappa)
heavy: B4 heavy with P345R, R386N
light: B1 light
notes: CH PK56 = SG1 with G236N/H268D/Q311R/A330K/P343R/D413R (EU numbering); also called MS103205H795-PK56
- KD fold (SG1 = 1) [1]: 0.8 fold

B7: MS1032LO06-MY201 (M103205H795-MY201/M103202L889-SK1) (antibody, human IgG1, kappa)
heavy: B4 heavy with R313Q, R386N, R415D
light: B1 light
notes: CH MY201 = SG1 with G236N/H268D/A330K (EU numbering); also called MS103205H795-MY201
- KD fold (SG1 = 1) [1]: 0.9 fold

B8: MS1032LO06-PK55 (M103205H795-PK55/M103202L889-SK1) (antibody, human IgG1, kappa)
heavy: B4 heavy with P345R, R386N, R415D
light: B1 light
notes: CH PK55 = SG1 with G236N/H268D/Q311R/A330K/P343R (EU numbering); also called MS103205H795-PK55
- KD fold (SG1 = 1) [1]: 1.1 fold

B9: MS1032LO06-MY351 (M103205H795-MY351/M103202L889-SK1) (antibody, human IgG1, kappa)
heavy: B4 heavy with R386N, R415K
light: B1 light
notes: CH MY351 = SG1 with G236N/H268D/Q311R/A330K/D413K (EU numbering); also called MS103205H795-MY351
- KD fold (SG1 = 1) [1]: 0.7 fold
